The values that follow come from PMC12797002, “Hydrophobic residues in the α‐synuclein NAC domain drive seed‐competent fibril formation and are targeted by peptide inhibitors” (The Febs Journal, 2025).

Data set [1] concerns the molecule itself. The data set is described as follows: ANS fluorescence aggregation kinetics; 100 μM NAC peptide, 40 μM ANS, 1× PBS at acidic (pH 4.2 in the methods, 4.5 in the legend), neutral (7.2) or basic (8.0) pH, 37 °C, 1000 rpm.
Data set [2] deals with the molecule itself. The data set is described as follows: co-sedimentation; 100 μM NAC peptide incubated 48 h without ThT, centrifuged at 65 000 g for 1 h; UV–Vis spectra (400–600 nm) of soluble and insoluble fractions.

B1: NAC11 (peptide, UniProt P37840 68-78, looked up)
peptide: GAVVTGVTAVA
notes: alpha-synuclein, residues 68-78 (NAC residues 8-18); also called NACore; αSyn 68–78; source: synthetic peptide (GenScript Biotech, purity ≥ 95%)
For the protein B1, the binding result in data set [1] is “binds”.

B2: NAC16 (peptide, UniProt P37840 63-78, looked up)
peptide: VTNVGGAVVTGVTAVA
notes: alpha-synuclein, residues 63-78 (NAC residues 3-18); also called αSyn 63–78; source: synthetic peptide (GenScript Biotech, purity ≥ 95%)
For the protein B2, the binding result in data set [2] is reported as “binds”.
